The record followed here is ChEMBL document CHEMBL3525932, “Comparison of metabolism of sesamin and episesamin by drug-metabolizing enzymes in human liver” (Drug Metab Dispos, 2012).

Substrate in data set [1]: [H][C@]12CO[C@H](c3ccc4c(c3)OCO4)[C@@]1([H])CO[C@@H]2c1ccc(O)c(O)c1
In words: Activity of recombinant human CYP2C19 expressed in Saccharomyces cerevisiae AH22 cells assessed as enzyme-mediated sesamin dicatechol formation after 15 mins by HPLC analysis in presence of NADPH. The data set is classed as ADME, cell-based.

Substrate in data set [2]: [H][C@]12CO[C@@H](c3ccc4c(c3)OCO4)[C@@]1([H])CO[C@@H]2c1ccc(O)c(O)c1
In words: (§1) Activity of recombinant human CYP2C19 expressed in Saccharomyces cerevisiae AH22 cells assessed as enzyme-mediated episesamin dicatechol formation after 15 mins by HPLC analysis in presence of NADPH. The data set is classed as ADME, cell-based.

Substrate in data set [3]: [H][C@]12CO[C@@H](c3ccc(O)c(O)c3)[C@@]1([H])CO[C@@H]2c1ccc2c(c1)OCO2
The description is as §1. The data set is classed as ADME, cell-based.

Substrate in data set [4]: [H][C@]12CO[C@@H](c3ccc4c(c3)OCO4)[C@@]1([H])CO[C@@H]2c1ccc(O)c(O)c1
In words: (§2) Drug metabolism in human liver cytosol assessed as COMT-mediated methylation after 10 to 30 mins by HPLC analysis in presence of SAM. The data set is classed as ADME.

Substrate in data set [5]: [H][C@]12CO[C@@H](c3ccc(O)c(O)c3)[C@@]1([H])CO[C@@H]2c1ccc2c(c1)OCO2
The data set is described as §2. The data set is classed as ADME.

Substrate in data set [6]: [H][C@]12CO[C@H](c3ccc4c(c3)OCO4)[C@@]1([H])CO[C@@H]2c1ccc(O)c(O)c1
The data set is described as §2. The data set is classed as ADME.

Substrate in data set [7]: c1cc2c(cc1[C@H]1OC[C@H]3[C@@H]1CO[C@@H]3c1ccc3c(c1)OCO3)OCO2
Put plainly: Activity of recombinant human CYP1A2 expressed in Saccharomyces cerevisiae AH22 cells assessed as enzyme-mediated sesamin monocatecholization after 15 mins by Michaelis-Menten plot analysis in presence of NADPH. The data set is classed as ADME, cell-based.

Substrate in data set [8]: c1cc2c(cc1[C@H]1OC[C@H]3[C@@H]1CO[C@@H]3c1ccc3c(c1)OCO3)OCO2
In words: Activity of recombinant human CYP2C9 expressed in Saccharomyces cerevisiae AH22 cells assessed as enzyme-mediated sesamin monocatecholization after 15 mins by Michaelis-Menten plot analysis in presence of NADPH. The data set is classed as ADME, cell-based.

Substrate in data set [9]: [H][C@]12CO[C@@H](c3ccc4c(c3)OCO4)[C@@]1([H])CO[C@@H]2c1ccc(O)c(O)c1
In words: (§3) Drug metabolism in Sprague-Dawley rat liver cytosol assessed as COMT-mediated methylation after 10 to 30 mins by HPLC analysis in presence of SAM. The data set is classed as ADME.

Substrate in data set [10]: [H][C@]12CO[C@@H](c3ccc(O)c(O)c3)[C@@]1([H])CO[C@@H]2c1ccc2c(c1)OCO2
Described as §3. The data set is classed as ADME.

Substrate in data set [11]: [H][C@]12CO[C@H](c3ccc4c(c3)OCO4)[C@@]1([H])CO[C@@H]2c1ccc(O)c(O)c1
The description is as §3. The data set is classed as ADME.

B1: Cytochrome P450 2C19 (Homo sapiens) (protein)
chain: MDPFVVLVLCLSCLLLLSIWRQSSGRGKLPPGPTPLPVIGNILQIDIKDVSKSLTNLSKIYGPVFTLYFGLERMVVLHGYEVVKEALIDLGEEFSGRGHFPLAERANRGFGIVFSNGKRWKEIRRFSLMTLRNFGMGKRSIEDRVQEEARCLVEELRKTKASPCDPTFILGCAPCNVICSIIFQKRFDYKDQQFLNLMEKLNENIRIVSTPWIQICNNFPTIIDYFPGTHNKLLKNLAFMESDILEKVKEHQESMDINNPRDFIDCFLIKMEKEKQNQQSEFTIENLVITAADLLGAGTETTSTTLRYALLLLLKHPEVTAKVQEEIERVIGRNRSPCMQDRGHMPYTDAVVHEVQRYIDLIPTSLPHAVTCDVKFRNYLIPKGTTILTSLTSVLHDNKEFPNPEMFDPRHFLDEGGNFKKSNYFMPFSAGKRICVGEGLARMELFLFLTFILQNFNLKSLIDPKDLDTTPVVNGFASVPPFYQLCFIPV
With B1, the Km in data set [1] came to 5.1 µM; in data set [2], 7.3 µM; in [3], 7.3 µM. Besides, the kcat is 0.233 s⁻¹ in [1], 0.25 s⁻¹ in data set [2] and 0.25 s⁻¹ in data set [3].

B2: Catechol O-methyltransferase (Homo sapiens) (protein)
chain: MPEAPPLLLAAVLLGLVLLVVLLLLLRHWGWGLCLIGWNEFILQPIHNLLMGDTKEQRILNHVLQHAEPGNAQSVLEAIDTYCEQKEWAMNVGDKKGKIVDAVIQEHQPSVLLELGAYCGYSAVRMARLLSPGARLITIEINPDCAAITQRMVDFAGVKDKVTLVVGASQDIIPQLKKKYDVDTLDMVFLDHWKDRYLPDTLLLEECGLLRKGTVLLADNVICPGAPDFLAHVRGSSCFECTHYQSFLEYREVVDGLEKAIYKGPGSEAGP
Consider B2, for which the Km stood at 2.4 µM in data set [4], 2.5 µM in data set [5] and 5.6 µM in data set [6]. Moreover, the Vmax amounted to 0.00059 µmol/min in data set [4], 0.00071 µmol/min in [5] and 0.0013 µmol/min in [6].

B3: Cytochrome P450 1A2 (Homo sapiens) (protein)
chain: MALSQSVPFSATELLLASAIFCLVFWVLKGLRPRVPKGLKSPPEPWGWPLLGHVLTLGKNPHLALSRMSQRYGDVLQIRIGSTPVLVLSRLDTIRQALVRQGDDFKGRPDLYTSTLITDGQSLTFSTDSGPVWAARRRLAQNALNTFSIASDPASSSSCYLEEHVSKEAKALISRLQELMAGPGHFDPYNQVVVSVANVIGAMCFGQHFPESSDEMLSLVKNTHEFVETASSGNPLDFFPILRYLPNPALQRFKAFNQRFLWFLQKTVQEHYQDFDKNSVRDITGALFKHSKKGPRASGNLIPQEKIVNLVNDIFGAGFDTVTTAISWSLMYLVTKPEIQRKIQKELDTVIGRERRPRLSDRPQLPYLEAFILETFRHSSFLPFTIPHSTTRDTTLNGFYIPKKCCVFVNQWQVNHDPELWEDPSEFRPERFLTADGTAINKPLSEKMMLFGMGKRRCIGEVLAKWEIFLFLAILLQQLEFSVPPGVKVDLTPIYGLTMKHARCEHVQARLRFSIN
As to B3, in [7], the Km came to 15 µM, the kcat worked out at 0.0833 s⁻¹ and the kcat/Km stood at 5500 M⁻¹ s⁻¹.

B4: Cytochrome P450 2C9 (Homo sapiens) (protein)
chain: MDSLVVLVLCLSCLLLLSLWRQSSGRGKLPPGPTPLPVIGNILQIGIKDISKSLTNLSKVYGPVFTLYFGLKPIVVLHGYEAVKEALIDLGEEFSGRGIFPLAERANRGFGIVFSNGKKWKEIRRFSLMTLRNFGMGKRSIEDRVQEEARCLVEELRKTKASPCDPTFILGCAPCNVICSIIFHKRFDYKDQQFLNLMEKLNENIKILSSPWIQICNNFSPIIDYFPGTHNKLLKNVAFMKSYILEKVKEHQESMDMNNPQDFIDCFLMKMEKEKHNQPSEFTIESLENTAVDLFGAGTETTSTTLRYALLLLLKHPEVTAKVQEEIERVIGRNRSPCMQDRSHMPYTDAVVHEVQRYIDLLPTSLPHAVTCDIKFRNYLIPKGTTILISLTSVLHDNKEFPNPEMFDPHHFLDEGGNFKKSKYFMPFSAGKRICVGEALAGMELFLFLTSILQNFNLKSLVDPKNLDTTPVVNGFASVPPFYQLCFIPV
With B4, in data set [8], the Km stood at 5.4 µM, the kcat is 0.0517 s⁻¹ and the kcat/Km amounted to 9500 M⁻¹ s⁻¹.

B5: Catechol O-methyltransferase (Rattus norvegicus) (protein)
chain: MPLAAVSLGLLLLALLLLLRHLGWGLVTIFWFEYVLQPVHNLIMGDTKEQRILRYVQQNAKPGDPQSVLEAIDTYCTQKEWAMNVGDAKGQIMDAVIREYSPSLVLELGAYCGYSAVRMARLLQPGARLLTMEMNPDYAAITQQMLNFAGLQDKVTILNGASQDLIPQLKKKYDVDTLDMVFLDHWKDRYLPDTLLLEKCGLLRKGTVLLADNVIVPGTPDFLAYVRGSSSFECTHYSSYLEYMKVVDGLEKAIYQGPSSPDKS
For B5, the Km worked out at 7.7 µM in data set [9], 5.5 µM in [10] and 9.2 µM in data set [11]. The Vmax in data set [9] came to 0.0032 µmol/min; in data set [10], 0.0024 µmol/min; in [11], 0.0033 µmol/min.

As a reminder, the Km is the concentration of substrate that gives half-maximal velocity. By kcat is commonly meant the maximal rate divided by the concentration of active sites. Broadly, the Vmax is the rate approached at saturating substrate. One may read the kcat/Km as the turnover number divided by the Michaelis constant.
